Reference: FireProtDB (doi:10.1021/bi012084+)
Several values for one entry are separate records, joined by “and”; a condition that tells them apart may be missing. Equal values may be shown once.

B1: Glyceraldehyde-3-phosphate dehydrogenase, P00362 (parent)
chain: MAVKVGINGFGRIGRNVFRAALKNPDIEVVAVNDLTDANTLAHLLKYDSVHGRLDAEVSVNGNNLVVNGKEIIVKAERDPENLAWGEIGVDIVVESTGRFTKREDAAKHLEAGAKKVIISAPAKNEDITIVMGVNQDKYDPKAHHVISNASCTTNCLAPFAKVLHEQFGIVRGMMTTVHSYTNDQRILDLPHKDLRRARAAAESIIPTTTGAAKAVALVLPELKGKLNGMAMRVPTPNVSVVDLVAELEKEVTVEEVNAALKAAAEGELKGILAYSEEPLVSRDYNGSTVSSTIDALSTMVIDGKMVKVVSWYDNETGYSHRVVDLAAYIASKGL

Variants of: B1
Settings: Geobacillus stearothermophilus, pH 7.5, Thermal, DSC, KH2PO4/KOH 100 mM, reversible: no, structure 1GD1, whole UniProt chain shown

Variant	Tm	unfolding enthalpy (calorimetric)	unfolding enthalpy (calorimetric) (transition: 3)	Tm (transition: 3)
T36Q T40S L44Q	64.8 °C and 66.8 °C	215 kcal/mol and 176 kcal/mol	215 kcal/mol and 127 kcal/mol	–
N315T	62.3 °C	138 kcal/mol	–	65.5 °C
D284G	–	140 kcal/mol and 148 kcal/mol and 119 kcal/mol	–	–
Y285V	–	182 kcal/mol and 397 kcal/mol and 178 kcal/mol	–	–
W312F	–	371 kcal/mol and 525 kcal/mol	–	–
Y47G S49G	–	–	127 kcal/mol	70.2 °C and 71.2 °C
Y47G R53G	–	–	214 kcal/mol and 127 kcal/mol and 180 kcal/mol	–
